Experimental data from publication PMC4731797.

Biological target: E. coli 70S ribosome (E. coli (endogenous in MRE600)) (UniProt P0AG67)
Assay: co-purification with ribosomes isolated from cell extract; 70S ribosomes from E. coli MRE600, low salt wash (0.75 M NH4Cl; 0.6 M for 2D-PAGE); 12% SDS-PAGE and 2D-PAGE, MALDI-TOF/TOF mass spectrometry, western blot with anti-AdhE; occupancy from band intensities with L2 as 100%

Row | occupancy [%] | Substance
1 | 50 | aldehyde-alcohol dehydrogenase E (AdhE), co-purified with the E. coli 70S ribosome (from UniProt P0A9Q7 1-891) (natural protein)
2 | 60 | outer membrane protein C (OmpC), co-purified with the E. coli 70S ribosome (from UniProt P06996 22-367) (natural protein)
